Target: recombinant human C2
Assay: ECL_MSD
Conditions: pH 6.0; 0.2 mol/L citric acid, 0.2 mol/L sodium citrate; 150 mmol/L NaCl

- EC50: 32.2 µg/mL
Substance: ARGX-117

Source: PMC7485568
